Laboratory results from patent US20120214173A1, “Methods of Identifying Modulators of an Ehd Polypeptide” (priority 2007, published 2012).
Substitutions are numbered along the chain they refer to. Numbers in names are those of the source. Entries after “also recorded” stand apart in the source; their conditions may differ. One block for each molecule: values may come before it.

Key:
[1] = molecular target: T1, isolated EH-domain of EHD2 (mouse, UniProt Q8BH64 443-543, limits assumed); assay: ITC at 10 °C, 100 mM HEPES pH 7.5, 50 mM NaCl, 200 µM CaCl2; peptide against the EH-domain of EHD2
T1 construct: domain: EH-domain; ITC buffer contained 200 µM CaCl2
T1 sequence (looked up): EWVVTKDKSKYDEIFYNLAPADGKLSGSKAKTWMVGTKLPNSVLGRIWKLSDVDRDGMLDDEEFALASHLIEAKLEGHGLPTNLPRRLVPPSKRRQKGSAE

[2] = molecular target: T1, isolated EH-domain of EHD2; assay: ITC at 10 °C, peptide against the EH-domain of EHD2
[3] = molecular target: the molecule itself; assay: negative stain EM on PS liposomes
HeLa cells = assay: Over-expression of EGFP-tagged EHD2 and mutants in HeLa cells (confocal / live imaging); format: cell-based
Experimental: (§1) Amino acid numbering corresponds to mouse EHD2. b, EHD2 binds to adenine nucleotides, as determined by ITC. For clarity, ΔΔH=ΔHn−ΔH1 is plotted. […] Images were acquired close to the basal cell surface. f, Nucleotide hydrolysis was measured by HPLC in the absence (empty symbols) or presence of Folch liposomes (filled symbols). Data represent mean and standard deviation for two (intrinisic reactions) or three (stimulated reactions) independent experiments.
Nucleotide hydrolysis was measured as described in FIG. 1f. In vitro tubulation activity of PS liposomes was analysed as described in FIG. 1d. f, EGFP-tagged mutants were over-expressed in HeLa cells. […] For each construct, three independent experiments with ≈50 cells/experiments were analysed.
Ultracentrifugation. Sedimentation velocity experiments were performed in a Beckman Optima XLA ultracentrifuge, using an An-60Ti rotor. Centrifugation was at 50,000 rev×min and 5° C. at an EHD2 concentration of 15 μM, with scans as fast as possible (˜1.5 min intervals). The data were analysed using DCDT+ v.2^44,45, with the partial specific volume for the protein (from the amino acid composition) and solvent density and viscosity calculated using Sednterp^46. Selected scans (at equal, ˜15 min intervals), and of g(s20,w) (the amount of material sedimenting between s20,w and (s20,w+δs)) and also the residuals for fitting the data with DCDT+, were plotted with the program profit v.5.6.7 (Quantum soft, Switzerland). Cell biology. N-terminal EGFP-tagged EHD2 and all mutants were over-expressed in HeLa cells from the pEGFP-C3 vector (Clontech). HeLa cells were grown as per ECACC guidelines with 10% fetal bovine serum and transfected using Genejuice (Novagen) for transient protein expression. 24 h after transfection, cells were fixed for 10 min at 37° C. in 3% paraformaldehyde and mounted. All confocal images were taken sequentially using a BioRad Radiance system and LaserSharp software (Biorad). For real-time microscopy, transfected cells on glass-bottom Petri dishes (WillCo Wells BV, Amsterdam) were washed with 25 mM HEPES (pH 7.5), 125 mM NaCl, 5 mM KCl, 10 mM D-glucose, 1 mM MgCl2, 2 mM CaCl), and epifluorescence images were taken using an Olympus IX70 microscope (Southhall, UK) and Argon laser (Melles Griot, Carlsbad, Calif.) with a Princeton instruments (Trenton, N.J.) cooled I-PentaMAX camera with MetaMorph software (Universal imaging).
EHD2 wild-type was over-expressed in HeLa cells for 24 h and imaged by EPI-fluorescence for approximately 30 min.
EHD2 T94A was over-expressed in HeLa cells for 24 h and imaged by EPI-fluorescence for approximately 30 min. […] EHD2 I157Q was over-expressed in HeLa cells for 24 h and imaged by EPI-fluorescence for approximately 30 min.

EHD2 = molecular target: T2, EHD2 (Mus musculus, UniProt Q8BH64); assay: Multiple turnover ATPase assay (nucleotide hydrolysis by HPLC) with or without Folch liposomes; format: biochemical; conditions: presence of Folch liposomes
T2 construct: Mouse EHD2 full-length protein and all mutants were expressed as N-terminal His-fusions followed by a PreScission cleavage site; His (N, cleaved yes); made in house; host or cells: Escherichia coli BL21 DE3 Rosetta
T2 sequence (Q8BH64 1-543): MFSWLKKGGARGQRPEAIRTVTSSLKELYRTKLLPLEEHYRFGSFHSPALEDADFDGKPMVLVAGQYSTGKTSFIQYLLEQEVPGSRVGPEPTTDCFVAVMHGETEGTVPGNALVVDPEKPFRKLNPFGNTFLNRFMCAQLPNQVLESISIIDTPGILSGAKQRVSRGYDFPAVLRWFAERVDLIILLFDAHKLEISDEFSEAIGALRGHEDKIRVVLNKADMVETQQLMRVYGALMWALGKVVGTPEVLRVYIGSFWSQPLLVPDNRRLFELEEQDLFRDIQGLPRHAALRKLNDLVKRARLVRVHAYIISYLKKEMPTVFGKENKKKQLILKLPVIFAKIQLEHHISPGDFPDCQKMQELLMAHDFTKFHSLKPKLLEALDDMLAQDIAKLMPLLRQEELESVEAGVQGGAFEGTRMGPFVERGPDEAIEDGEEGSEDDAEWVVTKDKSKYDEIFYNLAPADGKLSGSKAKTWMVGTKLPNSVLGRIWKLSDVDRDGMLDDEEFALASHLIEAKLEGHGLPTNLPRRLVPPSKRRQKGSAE
Experimental: as §1
ITC measurements were performed at 10° C. in 20 mM HEPES (pH 7.5), 300 mM NaCl, 2 mM MgCl2. Liposome binding assays were performed as described previously (www.endocytosis.org). Multiple turnover ATPase assays were performed in 20 mM HEPES (pH 7.5), 135 mM NaCl, 15 mM KCl, 1 mM MgCl2 at 30° C. with 10 μM EHD2 (or mutants) as enzyme and 100 μM ATP as substrate, in the absence or presence of 1 mg/ml Folch liposomes (Sigma-Aldrich).
(§2) Reactions were started by the addition of the protein to the final reaction mix and nucleotide hydrolysis was followed using standard HPLC measurement^27. Initial rates were determined by applying a linear fit to data points up to 40% nucleotide hydrolysis. For electron microscopic studies, 2.5 μM EHD2 in 20 mM HEPES (pH 7.5), 150 mM NaCl, 1 mM MgCl2 was incubated for 15 min at 25° C. in the presence of 1 mM nucleotide and 0.05 mg/ml (final concentration) of the indicated liposomes. Samples were spotted on carbon-coated copper grids (Canemco and Marivac) and negatively stained with 2% uranyl acetate.
We next monitored the effect of membrane-binding on the ATPase activity of. EHD2 under multiple-turnover conditions (10-fold excess of ATP over EHD2), in the presence and absence of Folch liposoines (FIG. 1f). The intrinsic/background ATPase activity is extremely slow (kobs=0.7 h^−1) but is stimulated 8-fold in the presence of Folch or PS liposomes (kobs=5.6 h^−1).

[4] = Negative stain EM of liposome tubulation/oligomerisation; conditions: 2.5 μM protein, PS liposomes
Experimental: as §1
EHD2 was incubated with the indicated liposomes in the presence and absence of nucleotides and analysed by EM as described in Methods. a, EHD2 deformed PS liposomes into tubular networks, here in the presence of ATP-γ-S. b, Enlarged views of the indicated area in a. Note the presence of regularly spaced EHD2 rings (some are indicated with arrows). This even spacing may be due to the curvature stress generated by an EHD2 ring along the axis of the lipid tubule which might disfavour binding of the next ring in the direct vicinity (see below). c, Some of the lipid tubules (especially at higher protein concentration) were tightly packed with EHD2 oligomeric rings. d,e In the presence of ADP and in the absence of nucleotide (f,g), EHD2 also tubulated PS liposomes and formed ring-like structures around the tubules. e,g are enlarged views of the indicated areas in d and f, respectively.
as §2
Nucleotide-independence of liposome tubulation in vitro is also observed for dynamin^16. No noticeable tubule fission or alteration in tubule diameter was found for EHD2 in the presence of ATP. […] Folch liposomes were also tabulated by EHD2. However, with synthetic liposomes containing only 2.5% PIP2 and in the absence of PS, the amount of EHD binding was reduced, and in this less favourable binding condition we only observed tubulation in the presence of ATP-γ-S and ADP but not in the absence of nucleotides (FIG. 7).

Molecule: EHD2 deletion mutant of the EH-domain (ΔEH)
membrane-stimulated ATPase activity (Q8BH64): did not show any membrane-stimulated ATPase activity

B1: EHD2 T94A (enzyme, mouse, UniProt Q8BH64 1-543, looked up)
chain: T2 sequence (Q8BH64 1-543) with T94A
notes: mature; also called T94A mutant
binding result [3]: binds
distribution of EGFP-tagged protein over-expressed in HeLa cells (HeLa cells; 24 h after transfection, fixed): extensive tubulation with no punctate stained; also recorded: labelled extensive tubular structures with essentially, no punctate staining
dynamics of tubules and puncta by EPI-fluorescence live imaging (HeLa cells; over-expressed 24 h, imaged approximately 30 min): only tubules, and these are mostly static
membrane-stimulated ATPase activity (in words) (EHD2): did not show any membrane-stimulated ATPase activity
liposome tubulation / oligomerisation by EM [4]: oligomerised around PS liposomes

Now from value to molecule:

Kd [1]: 130 µM
Molecule: KLNPFGNT (also called side site NPF peptide) [peptide 124-KLNPFGNT from EHD2]

binding result [2]: no binding
Molecule: PEKPFRKL (also called side site KPF peptide) [peptide 118-PEKPFRKL from EHD2]

binding result [2]: no binding
Molecule: RMGPFVER (also called top site GPF peptide) [peptide 418-RMGPFVER from EHD2]
